Experimental data as given in patent publication US20230235032A1 (published 2023).

Molecular target: T1, human α-CGRP (1-37, WT) (human, not fully specified; C-terminal amide; N-terminally biotinylated when captured on the chip; 125I-labelled in the radioligand assay)
T1 construct: also called full length human α-CGRP
T1 peptide: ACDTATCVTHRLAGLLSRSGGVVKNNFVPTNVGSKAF
Experiment: Biacore competition: 50 nM G1 Fab + 10 uM peptide, over human α-CGRP on SA chip
Description: All Biacore assays were conducted in HBS-EP running buffer (10 mM HEPES pH 7.4, 150 mM NaCl, 3 mM EDTA, 0.005% v/v polysorbate P20). CGRP surfaces were prepared by diluting the N-biotinylated CGRP to a concentration of less than 0.001 mg/mL into HBS-EP buffer and injecting it across the SA sensor chip using variable contact times. […] Samples were typically injected for 1 minute at 100 μL/min and dissociation times of at least 10 minutes were allowed. […] An entire titration series (typically generated in duplicate) was fit globally to a 1:1 Langmuir binding model using the BIAevaluation program. This returned a unique pair of association and dissociation kinetic rate constants (respectively, kₒₙ and koff) for each binding interaction, whose ratio gave the equilibrium dissociation constant (KD=koff/kₒₙ).

percentage of binding blocked by competing peptide: 100%
B1: anti-CGRP antibody G1, Fab fragment (Fab, V domains shown)
VH: EVQLVESGGGLVQPGGSLRLSCAASGFTFSNYWISWVRQAPGKGLEWVAEIRSESDASATHYAEAVKGRFTISRDNAKNSLYLQMNSLRAEDTAVYYCLAYFDYGLAIQNYWGQGTLVTVSS
VL: EIVLTQSPATLSLSPGERATLSCKASKRVTTYVSWYQQKPGQAPRLLIYGASNRYLGIPARFSGSGSGTDFTLTISSLEPEDFAVYYCSQSYNYPYTFGQGTKLEIK
notes: Fab expressed in E. coli; the vector adds the CH1 constant domain of human IgG2 (Ig gamma-2 chain C region, P01859) and the human kappa light chain constant domain (CAA09181); purified on Ni-NTA, tag not described
